As a reminder, the Kd is the equilibrium constant for the complex coming apart. Usually koff stands for a measure of how fast the partners let go of each other. Low values mean a long-lived complex, high ones a short-lived complex. As usually defined, the kon is the second-order rate constant of association.

Data set [1] has as its target T1, LHD29 chainB.
T1 construct: also called LHD29B; 29B
T1 chain: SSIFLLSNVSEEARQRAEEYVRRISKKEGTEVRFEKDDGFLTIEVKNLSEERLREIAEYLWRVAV
In words: BLI, steady state fit. Here is the method: (§1) Biolayer interferometry experiments were performed on an OctetRED96 BLI system (ForteBio, Menlo Park, CA). Streptavidin coated biosensors were first equilibrated for at least 10 minutes in Octet buffer (10 mM HEPES pH 7.4, 150 mM NaCl, 3 mM EDTA, 0.05% Surfactant P20) supplemented with 1 mg/ml Bovine Serum Albumin (SigmaAldrich). Enzymatically biotinylated designs were immobilized onto the biosensors by dipping the biosensors into a solution with 10-50 nM protein for 30-120 s. This was followed by dipping in fresh octet buffer to establish a baseline for 120 s. Titration experiments were performed at 25° C. while rotating at 1,000 r.p.m. Association of designs was allowed by dipping biosensors in solutions containing designed protein diluted in octet buffer until equilibrium was approached followed by dissociation by dipping the biosensors into fresh buffer solution in order to monitor the dissociation kinetics. Steady-state and global kinetic fits were performed using the manufacturer's software (Data Analysis 9.1) assuming a 1:1 binding model.

Data set [2] deals with the molecule itself. The data set can be described thus: BLI conditions (self-association).
Data set [3] deals with T1, LHD29 chainB. In words: BLI, global kinetic fit, 1:1 model. Here is the method: as §1
The target in data set [4] is T2, LHD206 chainB.
T2 construct: also called LHD206B
T2 chain: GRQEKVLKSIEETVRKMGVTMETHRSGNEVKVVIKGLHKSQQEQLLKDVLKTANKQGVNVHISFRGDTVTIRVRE
In words: BLI, steady state fit. The procedure: as §1
For orientation: BLI is a label-free optical method that tracks binding on a fibre tip over time.

Data set [5] addresses T2, LHD206 chainB. The data set can be described thus: BLI, global kinetic fit, 1:1 model. Here is the method: as §1
A further data set addresses T3, DF284B.
T3 construct: Bivalent connector
T3 chain: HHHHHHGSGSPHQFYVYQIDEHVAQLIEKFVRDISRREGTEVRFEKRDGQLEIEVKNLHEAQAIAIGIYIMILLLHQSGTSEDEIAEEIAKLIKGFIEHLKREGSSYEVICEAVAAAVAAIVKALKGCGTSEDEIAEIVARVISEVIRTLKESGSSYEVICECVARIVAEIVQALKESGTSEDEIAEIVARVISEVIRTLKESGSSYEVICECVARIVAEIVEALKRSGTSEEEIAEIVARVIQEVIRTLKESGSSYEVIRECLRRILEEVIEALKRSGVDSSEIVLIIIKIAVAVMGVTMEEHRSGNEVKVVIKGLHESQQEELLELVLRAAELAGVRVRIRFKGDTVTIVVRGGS
The data set can be described thus: SEC of mixed components; trimer listed in Table 6.

Another data set has as its target T4, LHD101 B8.
T4 single chain, LHD101 chain B fused to DHR8: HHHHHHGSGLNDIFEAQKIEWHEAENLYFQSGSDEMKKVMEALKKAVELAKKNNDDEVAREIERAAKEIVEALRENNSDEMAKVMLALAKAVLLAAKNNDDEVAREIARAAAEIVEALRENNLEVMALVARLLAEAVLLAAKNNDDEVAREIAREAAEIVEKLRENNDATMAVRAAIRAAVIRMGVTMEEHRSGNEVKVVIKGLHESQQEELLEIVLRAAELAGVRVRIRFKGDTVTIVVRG
In words: SEC binding assay (Superdex 200, normalised A230) of A, B and the mixture AB.

The target of the next data set is T5, 101B14.
T5 construct: also called LHD101 B14
T5 single chain, LHD101 chain B fused to DHR14: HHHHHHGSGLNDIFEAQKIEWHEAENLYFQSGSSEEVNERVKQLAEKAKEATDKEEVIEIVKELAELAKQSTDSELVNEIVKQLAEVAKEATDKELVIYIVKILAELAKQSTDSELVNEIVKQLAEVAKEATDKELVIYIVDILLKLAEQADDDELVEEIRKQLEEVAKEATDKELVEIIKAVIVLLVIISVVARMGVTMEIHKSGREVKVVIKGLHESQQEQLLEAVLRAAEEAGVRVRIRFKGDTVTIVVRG
The description is as above.

Another data set has as its target T6, 101B62.
T6 construct: also called LHD101B62
T6 chain: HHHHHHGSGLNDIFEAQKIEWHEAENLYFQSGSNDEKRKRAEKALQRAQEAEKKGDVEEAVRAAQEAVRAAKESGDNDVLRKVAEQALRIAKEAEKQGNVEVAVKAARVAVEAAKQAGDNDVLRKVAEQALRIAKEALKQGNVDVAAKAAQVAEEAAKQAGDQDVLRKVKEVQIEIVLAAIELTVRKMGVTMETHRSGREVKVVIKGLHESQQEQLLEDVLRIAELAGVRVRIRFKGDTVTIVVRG
The data set is described as above.

The next data set addresses T7, 101B82.
T7 chain: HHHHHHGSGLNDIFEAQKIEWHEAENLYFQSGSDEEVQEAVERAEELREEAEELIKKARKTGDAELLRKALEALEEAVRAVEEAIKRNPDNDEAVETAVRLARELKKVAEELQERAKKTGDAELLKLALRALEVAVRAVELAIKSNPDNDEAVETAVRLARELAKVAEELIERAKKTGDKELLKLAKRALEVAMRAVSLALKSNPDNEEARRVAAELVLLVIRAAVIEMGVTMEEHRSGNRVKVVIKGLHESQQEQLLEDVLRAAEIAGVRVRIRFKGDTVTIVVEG
The description is as above.

Data set [6] concerns the molecule itself. The data set can be described thus: SEC titration of the protomer alone at several injection concentrations (Superdex 200, normalised A230); self-association.
A further data set addresses T8, DFA0.
T8 construct: Bivalent connector
T8 chain: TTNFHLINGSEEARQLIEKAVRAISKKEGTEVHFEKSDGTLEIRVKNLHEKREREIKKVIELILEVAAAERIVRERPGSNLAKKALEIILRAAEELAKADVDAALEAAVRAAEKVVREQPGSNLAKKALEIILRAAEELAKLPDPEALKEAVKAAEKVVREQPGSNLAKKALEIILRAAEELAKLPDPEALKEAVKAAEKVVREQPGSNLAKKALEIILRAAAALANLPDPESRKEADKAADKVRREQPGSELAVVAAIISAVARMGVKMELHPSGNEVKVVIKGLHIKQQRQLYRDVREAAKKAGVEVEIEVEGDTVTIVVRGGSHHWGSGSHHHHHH
The data set can be described thus: SEC of mixed components; trimer listed in Table 6.

For the next data set, the target named is T9, 202B57.
T9 chain: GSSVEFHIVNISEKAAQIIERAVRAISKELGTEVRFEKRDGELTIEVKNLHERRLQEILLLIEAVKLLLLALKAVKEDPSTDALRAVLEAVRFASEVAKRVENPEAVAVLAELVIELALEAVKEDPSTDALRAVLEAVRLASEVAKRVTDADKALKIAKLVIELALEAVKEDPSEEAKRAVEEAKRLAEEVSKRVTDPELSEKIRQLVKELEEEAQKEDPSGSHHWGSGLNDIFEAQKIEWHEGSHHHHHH
In words: SEC of mixed components; linear tetramer listed in Table 6, neighbours in the chain. Here is the method:
Complexes and individual components were diluted in 20 mM Tris pH 8.0, 100 mM NaCl. After o/n equilibration of the mixtures at room temperature or 4 degrees C., 500 ul of sample was injected onto a Superdex™ 200 10/300 increase GL (dimers, linear assemblies) or Superose™ 6 increase 10/300 GL (symmetric assemblies) (all columns from GE healthcare) using the absorbance at 230 nm or 473 nm (for GFP tagged components) as read-out. Dimers were mixed at monomer concentrations of 5 μM or higher. Trimer and ABCD tetramer mixtures contained 5 μM of the bivalent connector, and 7.5 μM of each terminal cap (lower absolute concentrations with the same ratios were used for some trimers). ABCA tetramer mixtures contained 5 μM per bivalent connector and 15 μM terminal cap. The hexamer mixture contained 3 μM of components C and D, 3.6 μM of B and E, and 4.4 μM of A and F. The branched assembly shown in FIG. 4A contained 2.8 μM of the trivalent connector and 4 μM of each cap. For the exchange experiment shown in FIG. 5A, the ABC trimer was preincubated at concentrations of 6 μM B and 9 μM each of A and C. C′ was then added to reach a final concentration of 2 μM B, 3 μM each of A and C, and 6 μM C′.

Data set [7] concerns the molecule itself. The data set can be described thus: SEC titration of the C4 hub alone (normalised A230, concentrations per monomer) and negative-stain EM; self-association of hubs.

B1: LHD29 chainA (designed binder)
chain: TWQWVLINISEEARQRIEEYVRRISKKEGTEVHFEKDDGVLHIRVKNLHEKRAREIHEYAKRVIL
notes: also called LHD29A; 29A
B1 returned a Kd in the data set with LHD29 chainB [1] of 310 nM. For the same molecule, in [2], the binding result is reported as “binds”. In the data set with LHD29 chainB [3], the equilibrium dissociation constant (Kd) was determined as 985 nM, the koff stood at 0.00068 s⁻¹ and the kon worked out at 690 M⁻¹ s⁻¹.

B2: LHD206 chainA (designed binder)
chain: TDELLERLRQLFEELHERGTEIVVEVHINGRKTEIEVQGIDKRLLKIILEVIREEIEREGSSEVEVNVHSGGQTWTFNEK
notes: also called LHD206A
The molecule B2 displayed a Kd in the data set with LHD206 chainB [4] of 8.4 nM. In the data set with LHD206 chainB [5], this molecule yielded a Kd of 2.8 nM, a koff of 0.00075 s⁻¹ and an association rate constant (kon) of 270000 M⁻¹ s⁻¹.

B3: 101A53 (designed binder)
chain: HHHHHHGSGLNDIFEAQKIEWHEAENLYFQSGSNDEKEKLKELLKRAEELAKSPDPEDLKEAVRLAEEVVRERPGSNLAKKALEIILRAAEELAKLPDPEALKEAVKAAEKVVREQPGSNLAKKALEIILRAAAALANLPDPESRKEADKAADKVRREQPGSELAVVAAIISAVARMGVKMELHPSGNEVKVVIKGLHIKQQRQLYRDVREAAKKAGVEVEIEVEGDTVTIVVRG
notes: also called LHD101A53
B3: the binding result in the data set with DF284B is “binds”; in the data set with LHD101 B8, “binds”; with 101B14, “binds”; in the data set with 101B62 it was “binds”; with 101B82, “binds”; in data set [6] it was “no binding”.

B4: DF202 (designed binder)
chain: NTHFIVVHGTEEARQLAEEIVRLIAEALGTEVRFEKKDGLLSIEVKNLPEEAQRLIQKLLQLAVRIAQAAKSGDNDQLRELAEDALRLAKEAEKLGDLGAAAVAARLAVEAAKQAGDNDVLRKVAEQALRIAKEAEKQGLVDVAVEAARVAVEAAKQAGDNDVLRKVAEQALRIAKEAEKQGNVEVAVKAARVAVEAAKQAGDNDVLRKVAEQALRIVREALKQGNKEVAKKALEVAIEAANQAGDQKLLAEILLLAIEVLVVEMGVTMETHKSGNKVKVVIKGLHESQQETLRKLVHELLRKLGVVAVTQKHGDTVTIYVTEGGSHHWGSGSHHHHHH
notes: Bivalent connector
As for B4, the binding result with DFA0 and with 202B57 was “binds” throughout.

B5: C4-Hub (designed binder)
chain: GNTHFIVVHGSEDAAQLAEELVREISKKEGTEVRFEKKDGLLSIEVKNLSEERQREIQKALQLVQDVANAERVVRERPGSNLAKKALEIILRAAEELAKLDLKASLKAAVRAAEKVVREQPGSELAKKALEIILRAAEELAKLPDPEALHEAVRAAEHVVRSQPGSEAAKEALRIIQEAAELLKESPDPTAIIRAARALLKIARTTGDEEAAKEAIEAAKKAADLARERGDDELVCEALALLVAAQVELLKQQGTSAVEIAKIVARVISEVIRTLKEKGSSYEVICECVARIVAEIVEALKRSGTSAAIIALIVALVISEVIRTLKESGSSFEVILECVIRIVLEIIEALKRSGTSEQDVMLIVMAVLLVVLATLQLSGSGSLEHHHHHH
notes: C4-symmetric homo-oligomeric hub carrying LHD274B; also called C4 53; C4-symmetric hub
Consider B5, for which the binding result in data set [7] was “binds”.

Values taken from patent US20240368233A1 (University of Washington, published 2024).
